From patent US20240207432A1 (BIOSION, published 2024)
Where two headings read alike, the source gives them in different places.

What was measured:
[1] = molecular target: T1, full length human TROP2 on 293F-TROP2 cells (human, UniProt P09758 27-323); experiment: FACS on 293F-TROP2 cells, MFI
T1 construct: also called 293F-TROP2 cells (clone ID #3A8); cell surface TROP2
T1 sequence: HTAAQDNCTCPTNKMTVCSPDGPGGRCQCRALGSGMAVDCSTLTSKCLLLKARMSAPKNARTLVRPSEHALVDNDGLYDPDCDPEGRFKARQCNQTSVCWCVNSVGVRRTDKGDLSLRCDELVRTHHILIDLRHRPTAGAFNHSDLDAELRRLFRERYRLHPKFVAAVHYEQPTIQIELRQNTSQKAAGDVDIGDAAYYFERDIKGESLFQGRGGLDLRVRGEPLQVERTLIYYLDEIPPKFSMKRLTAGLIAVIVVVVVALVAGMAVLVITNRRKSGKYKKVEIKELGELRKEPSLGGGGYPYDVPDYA

[2] = molecular target: T2, cynomolgus TROP2-his protein (cynomolgus monkey, UniProt P09758 27-272 (human entry), limits assumed); experiment: SPR Biacore T200, mAb captured on anti-mouse IgG CM5 chip, TROP2-his analyte
T2 construct: no cleavage site is stated; also called Cynomolgus monkey TROP2-his protein; monkey TROP2
T2 chain: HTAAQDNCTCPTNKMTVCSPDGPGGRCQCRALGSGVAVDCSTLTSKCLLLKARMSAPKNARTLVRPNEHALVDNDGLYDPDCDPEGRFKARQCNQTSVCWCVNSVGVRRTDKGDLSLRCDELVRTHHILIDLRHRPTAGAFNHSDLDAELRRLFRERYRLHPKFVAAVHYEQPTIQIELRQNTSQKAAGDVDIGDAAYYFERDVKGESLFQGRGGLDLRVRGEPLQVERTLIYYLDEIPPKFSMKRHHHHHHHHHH
Method: (§1) Un-reacted moieties on the chip (biosensor) surface were blocked with ethanolamine. […] The antigen-antibody association kinetics was followed for 2 minutes and the dissociation kinetics was followed for 10 minutes. The association and dissociation curves were fit to a 1:1 Langmuir binding model using BIAcore evaluation software.

[3] = molecular target: T3, human TROP2-his protein (human, UniProt P09758 27-274); experiment: as above
T3 construct: Biotin-labelled in the ELISAs, unlabelled analyte in Biacore; also called biotin-labeled human TROP2-his protein; biotin human Trop2-his
T3 sequence: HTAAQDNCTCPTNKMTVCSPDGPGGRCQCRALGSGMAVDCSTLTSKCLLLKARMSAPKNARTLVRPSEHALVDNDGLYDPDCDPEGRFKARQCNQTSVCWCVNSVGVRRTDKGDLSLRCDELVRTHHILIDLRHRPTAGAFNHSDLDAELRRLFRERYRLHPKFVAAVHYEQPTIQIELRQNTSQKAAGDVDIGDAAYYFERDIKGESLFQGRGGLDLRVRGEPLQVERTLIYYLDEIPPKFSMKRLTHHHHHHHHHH
Method: as §1

[4] = molecular target: T3, human TROP2-his protein; experiment: capture ELISA, antibody captured on anti-mouse IgG Fc coat, biotin human TROP2-his in solution, OD(450-630)
Method: Plates were washed once with wash buffer (PBS+0.05% v/v Tween-20, PBST) and then blocked with 200 μl/well blocking buffer (5% w/v non-fatty milk in PBST) for 2 hours at 37° C. […] Plates containing captured anti-TROP2 antibodies were incubated with biotin-labeled human TROP2-his protein (prepared in house, SEQ ID NO: 67, 56.7 ng/mL in 2.5% w/v non-fatty milk in PBST, 100 μl/well) for 40 minutes at 37° C., washed 4 times, and incubated with streptavidin conjugated HRP (1:10000 dilution in PBST, Jackson Immuno Research, Cat #016-030-084, 100 μl/well) for 40 minutes at 37° C. After a final wash, plates were incubated with 100 μl/well ELISA substrate TMB (Innoreagents, Cat #TMB-S-002) at room temperature. The reaction was stopped in 3-10 minutes at room temperature with 50 μl/well 1M H₂SO₄, and the absorbance of each well was read on a microplate reader using dual wavelength mode with 450 nm for TMB and 630 nm as the reference wavelength. The OD (450-630) values were plotted against antibody concentration. Data was analyzed using Graphpad Prism software and EC₅₀ values were reported.

[5] = molecular target: T2, cynomolgus TROP2-his protein; experiment: indirect ELISA, cynomolgus TROP2-his coated, OD(450-630)
[6] = molecular target: T1, full length human TROP2 on 293F-TROP2 …; experiment: FACS on 293F-TROP2 cells, MFI; remark: listed apart in the source
Method: (§2) The 293F-TROP2 cells were harvested from cell culture flasks, washed twice and re-suspended in phosphate buffered saline (PBS) containing 2% v/v Fetal Bovine Serum (FACS buffer). […] Following an incubation of 40 minutes at 4° C. in dark, cells were washed twice and re-suspended in FACS buffer. Fluorescence was measured using a Becton Dickinson FACS Canto II-HTS equipment, and the MFI (mean fluorescence intensity) was plotted against antibody concentration. Data was analyzed using Graphpad Prism software and EC₅₀ values were reported.

[7] = molecular target: T1, full length human TROP2 on 293F-TROP2 …; experiment: FACS on 293F-TROP2 cells, MFI; remark: listed apart in the source
Method: The binding activity of the mouse anti-TROP2 antibodies to cell surface TROP2 proteins was tested by flow cytometry (FACS), using Biosion in-house prepared 293F-TROP2 cells (clone ID #3A8) stably expressing full length human TROP2s (uniprot #P09758, SEQ ID NO.: 71) on cell membrane. The 293F-TROP2 cells were prepared by transfecting 293F cells (Thermofisher Inc., Cat #11625019) with a pCMV-T-P plasmid inserted with human TROP2 coding sequence between EcoRI and XbaI sites, following the instruction of lipofectamine 3000 transfection reagent (Thermo Fisher).
as §2

[8] = molecular target: T2, cynomolgus TROP2-his protein; experiment: indirect ELISA, cynomolgus TROP2-his coated, OD(450-630)

B1: mouse antibody A1E4F7D4 (antibody, V domains shown)
VH: QVQLQQSGAELAKPGTSVKMSCEASGYSFTTHWIHWMKQRPGQGLEWIGTIFPSNAYAVYNQKFRDRAIMTADRSSTTAYIQLTGLTSEDSAVYYCARASYFDYWGQGTTLTVSS
VL: DILLTQSPATLSVSPGERVTFSCRASQNIGTSIHWFQQRTTGSPRLLIKYASESISGIPSRFSGSGSGTDFTLHINSVESEDIAHYYCQHSHSWPFTFGSGTKLEIQ
notes: Mouse monoclonal IgG purified from hybridoma supernatant; also called Mouse A1E4F7D4
- EC50 [1]: 1.01 nM
- koff [2]: ~4.54e-05 s⁻¹
- kon [2]: 483000 M⁻¹ s⁻¹
- koff [3]: ~4.7e-05 s⁻¹
- kon [3]: 373000 M⁻¹ s⁻¹
- EC50 [4]: 0.0891 nM
- EC50 [5]: 0.177 nM
- EC50 [6]: 1.48 nM
- EC50 [7]: 0.481 nM
- EC50 [8]: 0.837 nM

B2: benchmark (in house prepared sacituzumab) (antibody, human IgG1, kappa, V domains shown)
VH: SVQLQQSGSELKKPGASVKVSCKASGYTFTNYGMNWVKQAPGQGLKWMGWINTYTGEPTYTDDFKGRFAFSLDTSVSTAYLQISSLKADDTAVYFCARGGFGSSYWYFDVWGQGSLVTVSS
VL: DIQLTQSPSSLSASVGDRVSITCKASQDVSIAVAWYQQKPGKAPKLLIYSASYRYTGVPDRFSGSGSGTDFTLTISSLQPEDFAVYYCQQHYITPLTFGAGTKVEIKR
notes: also called BM; BM1
- EC50 [1]: 1.14 nM
- EC50 [5]: 0.191 nM
- EC50 [6]: 1.32 nM
- EC50 [7]: 0.83 nM
- EC50 [8]: 0.599 nM

B3: mouse antibody C1B3B12D2 (antibody, V domains shown)
VH: QVQLQQSGPELVRPGTSVKMSCKAAGYTFTKFWIGWVKQRPGHGLEWIGNIYPGGAYINYNENFKGKATLTADTFSSTAYMQLNSLTSADSAIYYCAREGSSGYWGQGTTLTVSS
VL: DIVMTQSPSSLTVTAGEKVTLSCKCSQSLLNSGTQENYLTWYQQKPGQPPKMLIYWASIREPGVPDRFTGSGSGTDFTLTINNVQAEDLAVYYCQHDYSYPFTFGSGTKLEIK
notes: Mouse monoclonal IgG purified from hybridoma supernatant
- EC50 [1]: 0.636 nM
- Kd [2]: 0.00186 nM
- koff [2]: 9.44e-07 s⁻¹
- kon [2]: 508000 M⁻¹ s⁻¹
- Kd [3]: 0.00136 nM
- koff [3]: 6.45e-07 s⁻¹
- kon [3]: 476000 M⁻¹ s⁻¹
- EC50 [4]: 0.107 nM
- EC50 [5]: 0.0849 nM
- EC50 (read off the curve) [7]: ~1 nM

B4: mouse antibody A1E11A12D1 (antibody, V domains shown)
VH: QVQLQQSGAELARPGASVKLSCMASGYTFTTYGISWVRQRTGQGLEWIGQIYPGSDYSYCDEDFKGKATLTADKSSSTAYMQLSSLTSEDSAVYFCARASYFDYWGQGTTLTVSS
VL: DILLTQSPAILSVSPGERVSFSCRASQTIGTAIHWYQQRANGSPRLLIKYASESISGIPSRFSGSGSGTDFALSINTVESEDFAYYYCQQSNNWPFTFGGGTKLEIR
notes: as for B3
- Kd [2]: 0.0563 nM
- koff [2]: 3.82e-05 s⁻¹
- kon [2]: 678000 M⁻¹ s⁻¹
- Kd [3]: 0.154 nM
- koff [3]: 8.09e-05 s⁻¹
- kon [3]: 525000 M⁻¹ s⁻¹
- EC50 [4]: 0.13 nM
- EC50 [7]: 0.78 nM

B5: mouse antibody A1H3C5H8E12 (antibody, V domains shown)
VH: QVQLQQSGAELVRPGTSVKMSCKAAGYTFTNYWIDWVKQRPGHGLEWIGNIFPGGFYTNYNEKFKGKATLTADTSSSTAYMQLSSLTSEDSAIYYCARGGVFDYWGQGTTLTVSS
VL: DILLTQSPAILSVSPGERVSFSCRASQSIGTSIHWYQQRTNGSPRLLIKYASESISGIPSRFSGSGSGTDFTLSINSVESEDIADYYCQQSNSWPYTFGGGTKLEIK
notes: as for B3
- Kd [2]: 1.12 nM
- koff [2]: 0.000758 s⁻¹
- kon [2]: 674000 M⁻¹ s⁻¹
- Kd [3]: 1.81 nM
- koff [3]: 0.000961 s⁻¹
- kon [3]: 531000 M⁻¹ s⁻¹
- EC50 [4]: 0.303 nM
- EC50 [7]: 0.773 nM

B6: huA1E4F7D4-V16 (antibody, human IgG1, kappa, V domains shown)
VH: QVQLVQSGAEVKKPGASVKVSCKASGYSFTTHWIHWVRQAPGQGLEWIGTIFPSNAYAVYNQKFRDRATMTADTSISTAYIELSRLRSDDTAVYYCARASYFDYWGQGTTVTVSS
VL: EIVLTQSPATLSLSPGERATLSCRASQNIGTSIHWFQQKPGGAPRLLIKYASESISGIPSRFSGSGSGTDFTLTISSLEPEDFAVYYCQHSHSWPFTFGQGTKLEIKR
notes: Positions of the X residues are given in the claims; also called humanized antibody huA1E4F7D4-V16
- EC50 [6]: 0.596 nM
- EC50 [8]: 0.611 nM
